Publication PMC4124035 (Nature structural & molecular biology, 2014)
Like-named read-outs stand apart in the source and are kept apart here.

Key:
RPAP2 (1-334) = assay: In vitro DiFMUP phosphatase assay; format: biochemical, human; details: 10 μM DiFMUP, 50 mM 3,3-dimethylglutaric acid pH 6.5, 37°C, fluorescence every 20 min for 2 hours
RPRD2 CID = target: T1, RPRD2 CID (Homo sapiens, UniProt Q5VT52); assay: ITC binding of CTD peptides to RPRD2 CID; details: ratio of Kd values of Table 1
T1 sequence (Q5VT52 15-161): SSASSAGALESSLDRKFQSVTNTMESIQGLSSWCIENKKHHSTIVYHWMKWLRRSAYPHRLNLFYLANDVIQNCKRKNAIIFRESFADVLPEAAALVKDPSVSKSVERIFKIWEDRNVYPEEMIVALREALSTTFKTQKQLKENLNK

RPRD1A CID = target: T2, RPRD1A CID (Homo sapiens, UniProt Q96P16); assay: ITC binding of CTD peptides to RPRD1A CID; details: ratio of Kd values of Table 1
T2 sequence (Q96P16 2-137): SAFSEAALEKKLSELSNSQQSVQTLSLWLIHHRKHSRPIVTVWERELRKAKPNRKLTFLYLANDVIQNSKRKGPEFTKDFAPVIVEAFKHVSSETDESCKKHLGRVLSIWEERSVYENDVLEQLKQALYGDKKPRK

RPRD1B CID = target: T3, RPRD1B CID (Homo sapiens, UniProt Q9NQG5); assay: ITC binding of CTD peptides to RPRD1B CID; details: ratio of Kd values of Table 1
T3 sequence (Q9NQG5 2-135): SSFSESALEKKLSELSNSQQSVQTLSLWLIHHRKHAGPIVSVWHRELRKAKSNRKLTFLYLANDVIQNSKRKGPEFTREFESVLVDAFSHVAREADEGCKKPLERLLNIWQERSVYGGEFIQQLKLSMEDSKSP

RPAP2 [1] = assay: Phosphatase assay with pNPP substrate; format: biochemical, human; details: unpublished data
RPAP2 [2] = assay: In vitro phosphatase ELISA on biotinylated CTD peptides; format: biochemical, human; details: Supplementary Fig. 4d
[3] = target: RPRD1B coiled-coil domain (human) (UniProt Q9NQG5); assay: AUC
[4] = target: RPRD1B coiled-coil domain (human) (UniProt Q9NQG5); assay: AUC; remark: listed apart in the source
[5] = target: RPRD1B coiled-coil domain (solution experiments) (human) (UniProt Q9NQG5); assay: AUC
[6] = target: RPRD2 CTD interaction domain (CID), residues 15-161 (human) (UniProt Q5VT52); assay: ITC
[7] = target: RPRD1B CTD interaction domain (CID), residues 2-135 (human) (UniProt Q9NQG5); assay: ITC
[8] = target: RPRD1A CTD interaction domain (CID), residues 2-137 (human) (UniProt Q96P16); assay: ITC
RPRD1A CID R106A = target: T4, RPRD1A CID R106A (human, UniProt Q96P16 2-137, R106A); assay: ITC
T4 sequence: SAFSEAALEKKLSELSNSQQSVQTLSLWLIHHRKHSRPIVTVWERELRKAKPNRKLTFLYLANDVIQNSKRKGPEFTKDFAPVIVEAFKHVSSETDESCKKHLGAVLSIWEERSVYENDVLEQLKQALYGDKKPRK

## Cc1cc(=O)oc2c(F)c(OP(=O)(O)O)c(F)cc12 [DiFMUP, 6,8-difluoro-4-methylumbelliferyl phosphate]
RPAP2 (1-334)
  dephosphorylation of the substrate by RPAP2 (1-334): dephosphorylated DiFMUP in a time- and dose-dependent manner

## C[C@@H](O)[C@H](NC(=O)[C@@H]1CCCN1C(=O)[C@H](COP(=O)(O)O)NC(=O)[C@H](Cc1ccc(O)cc1)NC(=O)[C@H](COP(=O)(O)O)NC(=O)[C@@H]1CCCN1C(=O)[C@H](CO)NC(=O)[C@@H](NC(=O)[C@@H]1CCCN1C(=O)[C@H](COP(=O)(O)O)NC(=O)[C@H](Cc1ccc(O)cc1)NC(=O)[C@H](CO)NC(=O)[C@@H]1CCCN1C(=O)[C@@H](N)CO)[C@@H](C)O)C(=O)N[C@@H](CO)C(=O)N1CCC[C@H]1C(=O)N[C@@H](COP(=O)(O)O)C(=O)N[C@@H](Cc1ccc(O)cc1)C(=O)N[C@@H](CO)C(=O)O [S2,7P CTD]
RPRD2 CID
  fold increase of RPRD2 CID affinity compared to S2P CTD: remained unchanged
RPRD1A CID
  fold increase of RPRD1A CID affinity compared to S2P CTD: 1.6 fold
RPRD1B CID
  fold increase of RPRD1B CID affinity compared to S2P CTD: 2.6 fold

## O=[N+]([O-])c1ccc(OP(=O)(O)O)cc1 [pNPP, para-nitrophenylphosphate]
RPAP2 [1]
  phosphatase activity of RPAP2 on the substrate: No measurable phosphatase activity

## [O]=[V]([O-])([O-])[O-] [vanadate]
RPAP2 [2]
  inhibition of RPRD1A-dependent S5 dephosphorylation by RPAP2: inhibited

## RPRD1B coiled-coil domain (from UniProt Q9NQG5 137-326) (domain or fragment)
[3]
  stoichiometry N: 2
[4]
  stoichiometry N: 2

## RPRD1B coiled-coil domain (solution experiments) (from UniProt Q9NQG5 137-326) (domain or fragment)
[5]
  percent dimer: 89.6%

## S2,5P CTD peptide
[6]
  Kd: > 1000 µM
[7]
  Kd: > 1000 µM
[8]
  Kd: > 1000 µM

## S2,7P CTD peptide
[7]
  fold increase of affinity compared to S2P alone: 2.6 fold
[8]
  fold increase of affinity compared to S2P alone: 1.6 fold

## S5,7P CTD peptide
[6]
  Kd: > 1000 µM
[7]
  Kd: > 1000 µM
[8]
  Kd: > 1000 µM

## S5P CTD peptide
[6]
  Kd: > 1000 µM
[7]
  Kd: > 1000 µM
[8]
  Kd: > 1000 µM

B1: 19-mer S2P CTD peptide (peptide)
peptide: SPSYSPTSPSYSPTSPSYS
RPRD1A CID R106A
  fold reduction of binding against wild type: ~27 fold
